Results published in paper PMC11420629 (2024).

Target: T1, GluR1 carboxy‐terminal region (SPR)
T1 chain: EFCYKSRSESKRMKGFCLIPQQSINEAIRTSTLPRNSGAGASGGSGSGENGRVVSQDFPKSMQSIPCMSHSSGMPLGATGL
Experiment: SPR

B1: full‐length CIRP protein (SPR) (natural protein)
chain: MASDEGKLFVGGLSFDTNEQALEQVFSKYGQISEVVVVKDRETQRSRGFGFVTFENIDDAKDAMMAMNGKSVDGRQIRVDQAGKSSDNRSRGYRGGSAGGRGFFRGGRSRGRGFSRGGGDRGYGGGRFESRSGGYGGSRDYYASRSQGGSYGYRSSGGSYRDSYDSYATHNE
- Kd: 1010 nM
